For series [1], the target named is T1, GLD-1-STAR (C. elegans, UniProt Q17339 135-336).
T1 sequence: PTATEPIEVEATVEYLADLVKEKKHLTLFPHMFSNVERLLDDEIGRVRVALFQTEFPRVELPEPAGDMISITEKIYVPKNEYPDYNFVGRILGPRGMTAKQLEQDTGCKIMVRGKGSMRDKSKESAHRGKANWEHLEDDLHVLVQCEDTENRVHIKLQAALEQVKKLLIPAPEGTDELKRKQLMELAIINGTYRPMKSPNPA
Kind of series: competition FP. The conditions noted are these: probe TGE; 10 mM Tris pH 8.0, 25 mM NaCl, 0.1 mM EDTA, 0.1 mg/mL tRNA, 5 ug/mL heparin, 0.01% IGEPAL CA630, room temperature, 3 h; EMSA gel 6% native, 0.5x TBE, 4 C.

In series [2] the test system is STAR-2-STAR (C. elegans). Nature of the series: competition FP. The conditions noted are these: probe TGE; 10 mM Tris pH 8.0, 25 mM NaCl, 0.1 mM EDTA, 0.1 mg/mL tRNA, 5 ug/mL heparin, 0.01% IGEPAL CA630, room temperature, 3 h; EMSA gel 6% native, 0.5x TBE, 4 C. Background: Mobility shift assays separate free from complexed probe on a gel.
For series [3], the system named is STAR-2-STAR (C. elegans). Nature of the series: EMSA. Conditions: 10 mM Tris pH 8.0, 25 mM NaCl, 0.1 mM EDTA, 0.1 mg/mL tRNA, 5 ug/mL heparin, 0.01% IGEPAL CA630, room temperature, 3 h; EMSA gel 6% native, 0.5x TBE, 4 C.
For series [4], the system named is STAR-2-STAR (C. elegans). Nature of the series: fluorescence polarization. Conditions: 10 mM Tris pH 8.0, 25 mM NaCl, 0.1 mM EDTA, 0.1 mg/mL tRNA, 5 ug/mL heparin, 0.01% IGEPAL CA630, room temperature, 3 h; EMSA gel 6% native, 0.5x TBE, 4 C. Background: In fluorescence polarisation assays a small probe gives low polarisation when free and higher when bound to something large.

In series [5] the target is T2, Qk-1-STAR (mouse, UniProt Q9QYS9 7-214).
T2 sequence: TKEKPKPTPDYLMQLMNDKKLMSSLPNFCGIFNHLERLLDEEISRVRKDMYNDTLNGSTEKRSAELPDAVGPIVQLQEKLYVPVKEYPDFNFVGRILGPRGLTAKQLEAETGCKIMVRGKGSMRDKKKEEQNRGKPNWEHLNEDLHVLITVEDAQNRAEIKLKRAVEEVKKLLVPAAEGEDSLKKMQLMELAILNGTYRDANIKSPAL
Kind of series: competition FP; probe C21A TGE; 10 mM Tris pH 8.0, 25 mM NaCl, 0.1 mM EDTA, 0.1 mg/mL tRNA, 5 ug/mL heparin, 0.01% IGEPAL CA630, room temperature, 3 h; EMSA gel 6% native, 0.5x TBE, 4 C. The conditions noted are these: protein: recombinant; tags: MBP fusion; chain copies: 2.

The target of series [6] is T1, GLD-1-STAR. Kind of series: competition FP; slightly tighter than WT 12-mer; 10 mM Tris pH 8.0, 25 mM NaCl, 0.1 mM EDTA, 0.1 mg/mL tRNA, 5 ug/mL heparin, 0.01% IGEPAL CA630, room temperature, 3 h; EMSA gel 6% native, 0.5x TBE, 4 C. Conditions: protein: recombinant; tags: MBP fusion; chain copies: 2.
Series [7] has as its target T2, Qk-1-STAR. Kind of series: EMSA; second shift (K2); 10 mM Tris pH 8.0, 25 mM NaCl, 0.1 mM EDTA, 0.1 mg/mL tRNA, 5 ug/mL heparin, 0.01% IGEPAL CA630, room temperature, 3 h; EMSA gel 6% native, 0.5x TBE, 4 C. Conditions: protein: recombinant; tags: MBP fusion; chain copies: 2; label: 5' 32P.
The target of series [8] is T2, Qk-1-STAR. Kind of series: EMSA; first shift (K1); 10 mM Tris pH 8.0, 25 mM NaCl, 0.1 mM EDTA, 0.1 mg/mL tRNA, 5 ug/mL heparin, 0.01% IGEPAL CA630, room temperature, 3 h; EMSA gel 6% native, 0.5x TBE, 4 C. Conditions: protein: recombinant; tags: MBP fusion; chain copies: 2; label: 5' 32P.
The target in series [9] is T2, Qk-1-STAR. Nature of the series: EMSA; 10 mM Tris pH 8.0, 25 mM NaCl, 0.1 mM EDTA, 0.1 mg/mL tRNA, 5 ug/mL heparin, 0.01% IGEPAL CA630, room temperature, 3 h; EMSA gel 6% native, 0.5x TBE, 4 C. The conditions noted are these: protein: recombinant, tags: MBP fusion, chain copies: 2.
Series [10] has as its target T1, GLD-1-STAR. Kind of series: competition FP; probe TGE; 10 mM Tris pH 8.0, 25 mM NaCl, 0.1 mM EDTA, 0.1 mg/mL tRNA, 5 ug/mL heparin, 0.01% IGEPAL CA630, room temperature, 3 h; EMSA gel 6% native, 0.5x TBE, 4 C. The conditions noted are these: protein: recombinant, tags: MBP fusion, chain copies: 2.
The target in series [11] is T1, GLD-1-STAR. Described as above. The conditions noted are these: protein: recombinant; tags: MBP fusion; chain copies: 2.
In series [12] the target is T2, Qk-1-STAR. Kind of series: fluorescence polarization; 10 mM Tris pH 8.0, 25 mM NaCl, 0.1 mM EDTA, 0.1 mg/mL tRNA, 5 ug/mL heparin, 0.01% IGEPAL CA630, room temperature, 3 h; EMSA gel 6% native, 0.5x TBE, 4 C. The conditions noted are these: protein: recombinant; tags: MBP fusion; chain copies: 2; label: 5' 32P (EMSA), 5' fluorescein (FP).
Series [13] concerns the target T1, GLD-1-STAR. Described as above. Conditions: protein: recombinant; tags: MBP fusion; chain copies: 2; label: 5' 32P (EMSA), 5' fluorescein (FP).
Series [14] concerns the target T1, GLD-1-STAR. Kind of series: fluorescence polarization; slightly tighter than WT TGE; 10 mM Tris pH 8.0, 25 mM NaCl, 0.1 mM EDTA, 0.1 mg/mL tRNA, 5 ug/mL heparin, 0.01% IGEPAL CA630, room temperature, 3 h; EMSA gel 6% native, 0.5x TBE, 4 C. Conditions: protein: recombinant; tags: MBP fusion; chain copies: 2; label: 5' 32P (EMSA), 5' fluorescein (FP).
[15] abbreviates: label: 5' 32P (EMSA), 5' fluorescein (FP).

Positions count from the first letter of the chain named. Names may count otherwise.

Here are results for 25 molecules from publication PMC2905418, “High-affinity consensus binding of target RNAs by the STAR/GSG proteins GLD-1, STAR-2 and Quaking”.

By Ki is commonly meant a dissociation constant, usually derived from enzyme kinetics or from competition with a known ligand. As a reminder, the Kd is the constant that tells how readily two partners part at equilibrium.

Turning to poly-U, two hexamers, 0-nt spacing, the Ki in [1] turned out to be 25.3 nM. Take poly-U, two hexamers, 12-nt spacing: the Ki in [1] came to 4.8 nM. Turning to “AUCUAAUCAUAU [C19A 12-mer (WT background)]”, the IC50 ratio, WT half-site vs mutant probe (IC50 WT half-site/C19A) in series [2] was determined as 4.2. In the case of “AUCUACUCAUAU [WT TGE half-site 12-mer (14-25; A21C in the A21 background)]”, in series [2], the IC50 ratio (IC50 TGE/WT half-site) turned out to be 0.13.

Turning to poly-U, two hexamers, 4-nt spacing, in series [1], the Ki was found to be 12.2 nM. With “AUCUACUAAUAU [C21A (A21) half-site 12-mer]”, in [2], the IC50 ratio (IC50 TGE/C21A 12-mer) worked out at 2.7 and the IC50 ratio, WT half-site vs mutant probe (IC50 WT half-site/C21A) was determined as 20. Turning to poly-U, one hexamer at 5' end, in [1], the Ki came to 110 nM. Still for that read-out and setting: to poly-U, two hexamers, 2-nt spacing belongs 22.7 nM.

Regarding “UAUUUAAUUUCUUAUCUACUCAUAUCUA [WT TGE 28-mer]”, the Kd is 36 nM in series [3] and 40 nM in [4]. The matching figures for “UAUUUAAUUUCUUAUCUACUAAUAUCUA [C21A TGE 28-mer]”: 1.2 nM and 5 nM.

B1: C21A (A21) half-site 12-mer (ssRNA)
RNA: AUCUACUAAUAU
Regarding B1, the Ki in series [5] stood at 46 nM. The binding result in series [6] is reported as “binds”.

B2: MBP:2 (WT) (ssRNA)
RNA: GACACACUAACCUCGGUGGAAAAAUAACCAU
Turning to B2, the figures for the Kd in [7] and in [8] were 269 ± 122 nM and 24.5 ± 5 nM, respectively.

B3: MBP:2-5'm2 (ssRNA)
RNA: B2 RNA with A6U, A9C, A10U
Turning to B3, the Kd in series [9] (label: 5' 32P) worked out at 100 nM.

B4: C21A TGE 5' mutant (ssRNA)
RNA: UAUUCUCUUUCUUAUCUACUAAUAUCUA
For the molecule B4, in [9] (label: 5' 32P), the Kd is 7.1 ± 1 nM.

B5: TGE 46-67 (ssRNA)
RNA: AUCUACUCAUAUCUAAUCGUCC
Consider B5, for which the Ki in series [10] was 10.7 ± 2 nM.

B6: WT TGE half-site 12-mer (14-25; A21C in the A21 background) (ssRNA)
RNA: AUCUACUCAUAU
On to B6, for which, in series [5], the binding result is recorded as “no binding”. The binding signal in [11] is ~9 fold weaker than TGE.

B7: TGE 1-18 (ssRNA)
RNA: UAUUUAAUUUCUUAUCUA
As to B7, the binding signal in [11] stood at 42 fold weaker than TGE.

B8: WT TGE 28-mer (ssRNA)
RNA: UAUUUAAUUUCUUAUCUACUCAUAUCUA
Consider B8, for which the Ki in series [10] (setting [15]) is 11.1 ± 4 nM. In addition, the Kd in series [9] (setting [15]) was 49 ± 2 nM; in series [12], 63 ± 4 nM; in series [13] it was 32 ± 3 nM.

B9: TGE 56-67 (ssRNA)
RNA: AUCUAAUCGUCC
With B9, the binding signal in [11] was 32 fold weaker than TGE.

B10: TGE 14-35 (ssRNA)
RNA: AUCUACUCAUAUCUACUCAUAU
B10: in series [10], the Ki came out at 4.6 ± 0.8 nM.

B11: C21A TGE 28-mer (ssRNA)
RNA: UAUUUAAUUUCUUAUCUACUAAUAUCUA
With B11, the binding result in series [14] is “binds”. Also, the Kd in series [9] (setting [15]) is 1.2 ± 0.2 nM; in series [12], 13 ± 2 nM.

B12: C19A 12-mer (A21 background) (ssRNA)
RNA: AUCUAAUAAUAU
With B12, in series [5], the binding result is given as “no binding”.

B13: poly-U 28-mer (ssRNA)
RNA: UUUUUUUUUUUUUUUUUUUUUUUUUUUU
On to B13, for which the binding result in series [10] is listed as “no binding”.

B14: MBP:2-5'm1 (ssRNA)
RNA: GACACUCGGUGCUCGGUGGAAAAAUAACCAU
On to B14, for which the Kd in series [9] (label: 5' 32P, predicted secondary structure (mfold)) was 498 nM.

B15: MBP:2-3'm2 (ssRNA)
RNA: GACACACUAACCUCGGUGGAAACUCUUACAU
For B15, the Kd in series [7] came out at 199 nM; in series [8], 69 nM.
